Measurements: the nanobody polyreactivity screen of Harvey et al. (2022)

Experiment: yeast display, Sf9 membrane polyspecificity reagent, FACS + sequencing; frameworks hold sequencing errors
Procedure, shortened: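 A synthetic nanobody library was expressed on Saccharomyces cerevisiae BJ5465 by galactose induction for 36–48 hours. The library was stained for 1 hour at 4 °C with 10% biotinylated, detergent-solubilized Sf9 membrane reagent and enriched with streptavidin microbeads before FACS. Low and high (top ~1%) gates were set on anti-HA fluorescence for expression and streptavidin fluorescence for reagent binding, and each polyreactivity label reflects the gate of origin.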

Sequence	polyreactivity (PSR sort gate)
QVQLVESGGGLVQPGRSLRLSCAASGFTFYIYAMGWYRQAPGKERELVAAISGRGSSTYYADSVKGRFTISRDNAKNSVYLQMNSQTPEDTAVYYCAAGKSKYGVRGDYWGQGTQVTVSS	high polyreactivity
QVQLVESGGGLVQPRGSLRLSCAASGGTFKFYAMGWYRQAPGKDRELVAAITSGGSTNYADSVKGRFTISRDNAKNTVYLLMNSLKPEDTALYYCNADFYQRYGVFSSRRYFYWGQGTQVTVSS	low polyreactivity
QVQLVESGGGLVQPVGSLRLSCAASGYTFPRYTMGWSRQAPGKERELVAAITSSGSTNYADSVKGRFTISRDNAKNTVYLQMNSLKPEDTAVYYCNKARIRTWSRGYDYWGQGTQLTVSS	high polyreactivity
QVQLVESGGGLVQSGGSLRLRCAASGRIFGGYAMGWYRQAPGKERELVAAISWRGGSTSYADSVKGRFTISRDNAKNTVYLQMNSLKPEDTAVYYCAKYWGHTYGSWGQGTQVTVSS	high polyreactivity
QVQLVESGGGLVQSGGSLRLSCAASGFTFSWYAMGSYRQAPGKERELVAAISWDGDSTYYADSVKGRCTISRDNAKNTVFLQMNSLKPEETAVYYCAADFSYYWDGYDYWGQGSQVTVSS	high polyreactivity
QVQLVESGGGLVQSGGSLRLSCAASGFTFYFNAMGWYRPAPGKERELVAAIRWSGGNTYYADSVKGRFTISRDNAKNTVYLQMNSLKPEDTAVYYCNKDPWHDTYSVKEYDYWGQGTQVTVSS	low polyreactivity
QVQLVESGGGLVQSGGSLRLSCAASGGSFTFYAMGWYRQAPGKERELVATINWSGGSTYYADSVKGRFTISRDNAKNTVYLQMNSLKPEDTAVYYCNAAWPYKSVEYWGQGTQVTVSS	low polyreactivity
QVQLVESGGGLVQSGGSLRLSCAASGGTFHKYDMGWYRQAPGKERELVAAITRSGGSTYYADSVKGRFTISRDNAKNTVYLQMNSLKPEDTAVYFCNAGKRGSTYYYWGQGTQVTVSS	high polyreactivity
QVQLVESGGGLVQSGGSLRLSCAASGIIFDSYAMGWYRQAPGKERELVAAISSRGASTYYADSVKGRFTISRDNAKYTVYLQMNSLKPEDTAVYYCNAVYYAYRYGSSYDWGQGTQVTVSS	high polyreactivity
QVQLVESGGGLVQSGGSLRLSCAASGIIFEYYDMGWYRQAPGKEREFVAAIDSGGSTYYADSVKGRFTISRDNAKNTVYLQMNSLKPEDTAVYYCAASRPPNTSNTGYGSWGQGTQVTVSS	low polyreactivity
QVQLVESGGGLVQSGGSLRLSCAASGIIFSDYAMGWYRQAPGKERELVATITRSVRTSYADSVKGRFTISRDNAKNTVYLQMNSLKPEDTAVYYCNADVVGAVIAYDYWGQGTQVTVSS	low polyreactivity
QVQLVESGGGLVQSGGSLRLSCAASGITFYVYTMGWYRQAPGKERELVAAINGSGGSTNYADSVKGRFTISRDNAKNTVHLQMNSLKPEDTAVYYCAADWSLRLYDYWGQGTQVTVSS	low polyreactivity
QVQLVESGGGLVQSGGSLRLSCAASGITSHPYDMGWSRQAPGKERELVAVITSGGSTSYADSVKGRFTISRDNAKNTVYLQMNRLKPEDTAVYYCNADWFTPAQPWYRYFIRYDYWGQGTEVTVSS	low polyreactivity
QVQLVESGGGLVQSGGSLRLSCAASGRIFKLYAMGWYRQAPGKERELVAAITRTGTSTYYADSVKGRFTISRDNAKNTVYLQMNSLKPEDTAVYYCNKTTLLTVEYDYWGQGTQVTVSS	low polyreactivity
QVQLVESGGGLVQSGGSLRLSCAASGRIFYYNAMGWYRQAPGKERELVAAITSSSGSSTYYADSVKGRFTISRDNAKNTVYLQMNSLKPEDTAVYYCNAASLDRFFGYRYNDDDYWGQGTQVTVSS	low polyreactivity
QVQLVESGGGLVQSGGSLRLSCAASGRTFLTYVMGWYRPAPGKERELVAAITRGGRTNYAHSEKGRFTISRDNAKNTVDLQMTSLKPEDTAVYYCARDDTPRYDYWGQGTQVTVSS	low polyreactivity

Sequence	polyreactivity (PSR sort gate)
QVQLVESGGGLVQSGGSLRLSCAASGSTFDPNTMGSYRQAPGKERELVATITSVDSTNYADSVKGRFTISRDNAMNTVYLQMNSLIPEDTAVYYCNAAYGGVFFYAYDYWGQGTQVTVSS	low polyreactivity
QVQLVESGGGLVQSGGSLRLSCAASGSTFKFYAMGWYRQAPGKEREFVAAITSSGDSTYYADSVKGRFTISRDNAKNTVYLQMNSLKPEDTAVYYCAARLRWRYSYDYWGQGTQVTVSS	high polyreactivity
QVQLVESGGGLVQSGGSLRLSCAASGSTFQSNAMGWYRQAPGKERELVATITQSGATTYYADSVKGRFTISRDNAKNTVYLQMNSLKPEDSAVYYCNVDTYQKRWFWLDLDGGYWGQGTQVTVSS	low polyreactivity
QVQLVESGGGLVQSGGSLRLSCAASGSTFSTYAMGWYRQAPGKERQLVAGITGSGGRTYYADSVKGRFTISRDNAKHTVYLQMNSMKPEDTGVYYCAASTRGYKWVGRDYDYWGQGTQVTVSS	high polyreactivity
QVQLVESGGGLVQSGGSLRLSCAASGSTFVWYAMGWYRQAPGKERELVAAITDSGDDTYYADSVKGRFTISRDNAKNTVYLQMNSLKAEDNAVYYCAVVAWSVPPYDYWGQGTQVTVSS	low polyreactivity
QVQLVESGGGLVQSGGSLRLSCAASGSTIPPNAMGWYRQAPGKERELVAGISYGGSTTYADSVKGRFTISRDNAKNTVYLQMNSLKPEDTAVYYCAADQPYWRDYDYWGQGTQVTVSS	low polyreactivity
QVQLVESGGGLVQSGGSLRLSCGASGLIYGPNSMGWYRQAPAKERELVAAITKSGDSTYYADSVKGRFTISRDNAKNTVYLQMNSLKPEDTAVYYCAAEWYPYPWGYGYWGQGTQVTVSS	low polyreactivity
QVQLVESGGGLVQSGVSLRLSCAASGITFYSIAIGWYRPATGKEMELVAANTRRGGSKLNADSVKGRFTNSRDNSKNTVYLQMNSLKPEDTAVYFCAADVPWWSYSDDYWGQGTKVTVSS	high polyreactivity
QVQLVESGGGLVQSGVSLRLSCAASGSIFDPYAMGWYRPAPGKERELVAAITSGGSTYYADSVKGRFTISRDNAKNTVYLQMNSLKPEDTAVYYCAKDFDIYYSKYDYWGQGTQVTVSS	low polyreactivity
QVQLVESGGGLVQSVGSLRLSCAASGFTFRWYAMGWYRQAPGKERELVAAITSRGGTTYYADSVKGRFTISRDNAKNTVYLQMNSLNPEDTAVYYCAARRAGRRGYYYWGQGTQVTVSS	high polyreactivity
QVQLVESGGGLVQTGGSLRLSCAASGFIFGPYVMGWYRQAPRKERELFAAISSDGSTTYADSVKGRFTISRDNEKNTVYLQMNSLKPEDTAVYYFAAEDQQNGYDYWGQGTQVTVSS	low polyreactivity
QVQLVESGGGLVQTGGSLRLSCAASGRIFNGNAMGWYRQAPGKERELVAAITKSGGNTYYADSVKGRFTISRDNAKNTVYLEMNSLKQEDTAVYYCNAYYSLGAWKGAYDYWGQGTQVTVSS	low polyreactivity
QVQLVESGGGLVQTGGSLRLSCAASGSTFNQYDMGWYRQAPGKERELVAAINRDGSTYYADSVKGRFTISRDNAKNTVYLQMNSLNPEDTAVYYWNAVGWYTYFYGSRKYNSWGQGTEVTVSS	low polyreactivity
QVQLVESGGGLVQVGGSLRLSCAASGITFSYYSMGWYRPAPGKERELVAAISQRGGSTYYADSVKGRFTISRDNAKNTVYLQMNSLKPEDTAVYYCAAAYRGANYGYGFDYWGQGTQVTVSS	high polyreactivity
QVQLVESGGGLVQVGGSLRLSCAASGSIFAINAMGWYRQAPGKERELVAAIRRRDGNTYYADSVKGRFTISRDNAKNTVYLQMNSLKPEDTAVYYCNTYSRRTSVIAYRYNYWGQGTQVTVSS	high polyreactivity
QVQLVESGGGLVQVGGSLRLSCAASGSIFVENAMGWYRQAPGKERELVAAITSGGSTNYADSVKGRFTISRDNAKNTVYLQMNSLKPEDTAVYYCNADENYGYYTHFGYWGQGTQVTVSS	low polyreactivity
